Measured values taken from patent publication US20250339569A1 (3B PHARMACEUTICALS, published 2025).
Starred links: 1 amine or outer side, 2 acyl side, 3 side chain; linkers in the order of their positions; H or OH if unused. Positions of bridges follow the written chain, without caps; N, C: chain ends. Non-standard residues stand in square brackets, D forms with d. Groups on a side chain read outwards from the residue. Primed or numbered codes have the meaning given here. *: point of attachment. Af3(4SaPy2Ac) = 3-amino-L-phenylalanine, ring amine acylated with (4-sulfamoylpyrazol-1-yl)acetic acid, NS(=O)(=O)c1cnn(CC(=O)Nc2cccc(C[C@H](N[*:1])C(=O)[*:2])c2)c1; Af3(Hsfu) = 3-amino-L-phenylalanine, ring amine acylated with 4-sulfamoylfuran-2-carboxylic acid, NS(=O)(=O)c1coc(C(=O)Nc2cccc(C[C@H](N[*:1])C(=O)[*:2])c2)c1; Aph(SaPr)″ = 4-amino-L-phenylalanine, ring amine acylated with 3-sulfamoylpropanoic acid, NS(=O)(=O)CCC(=O)Nc1ccc(C[C@H](N[*:1])C(=O)[*:2])cc1; Aph(SaPr) = 4-amino-L-phenylalanine, ring amine acylated by 3-sulfamoylpropanoic acid, NS(=O)(=O)CCC(=O)Nc1ccc(C[C@H](N[*:1])C(=O)[*:2])cc1; Af3(HO-Succinyl) = 3-aminophenylalanine with succinyl (free acid) on the ring amine, O=C(CCC(=O)[*:3])Nc1cccc(C[C@H](N[*:1])C(=O)[*:2])c1; Eem = S-benzyl-cysteine-sulfone, O=C([C@H](CS(=O)(=O)Cc1ccccc1)N[*:1])[*:2]; Phe(3-NHCO(CH2)3SO2NH2) = N[C@@H](Cc1cccc(NC(=O)CCCS(N)(=O)=O)c1)C(=O)O; APAc″ = 2-(4-(amino)piperidin-1-yl)acetic acid, NC1CCN(CC(=O)*)CC1; DOTA = O=C(O)CN1CCN(CC(=O)O)CCN(CC(=O)*)CCN(CC(=O)O)CC1; PPAc = 4-carboxymethyl piperazine linker; mXylylene = c1cc(C[*:1])cc(C[*:2])c1; tBuAla = CC(C)(C)C[C@H](N)C(=O)O; NMeD = CN[C@@H](CC(=O)O)C(=O)O; N4BzlCl = not defined here; 4Amb = NCc1ccc(C(=O)O)cc1; hSer = N[C@@H](CCO)C(=O)O; AGLU′ = not defined here; APAc = not defined here; Apr = not defined here; Dap = NC[C@H](N)C(=O)O; Nlys = NCCCCNCC(=O)O; Bn = c1ccc(C*)cc1

B1: 3BP-4261 (peptide)
peptide: {DOTA-4Amb}-DCE[dP]DWLTW[Dap]C-NH2
modifications: lactam 10-1; linker 2-11 via mXylylene
SMILES: CC(C)C[C@@H]1NC(=O)[C@H](Cc2c[nH]c3ccccc23)NC(=O)[C@H](CC(=O)O)NC(=O)[C@H]2CCCN2C(=O)[C@H](CCC(=O)O)NC(=O)[C@@H]2CSCc3cccc(c3)CSC[C@@H](C(N)=O)NC(=O)[C@H](CNC(=O)C[C@H](NC(=O)c3ccc(CNC(=O)CN4CCN(CC(=O)O)CCN(CC(=O)O)CCN(CC(=O)O)CC4)cc3)C(=O)N2)NC(=O)[C@H](Cc2c[nH]c3ccccc23)NC(=O)[C@H]([C@@H](C)O)NC1=O
B2: 3BP-4453 (peptide)
peptide: {DOTA}-QCE[dP]D[Phe(3-NHCO(CH2)3SO2NH2)]LTWSC-NH2
modifications: linker 2-11 via mXylylene
SMILES: CC(C)C[C@@H]1NC(=O)[C@H](Cc2cccc(NC(=O)CCCS(N)(=O)=O)c2)NC(=O)[C@H](CC(=O)O)NC(=O)[C@H]2CCCN2C(=O)[C@H](CCC(=O)O)NC(=O)[C@@H](NC(=O)[C@H](CCC(N)=O)NC(=O)CN2CCN(CC(=O)O)CCN(CC(=O)O)CCN(CC(=O)O)CC2)CSCc2cccc(c2)CSC[C@@H](C(N)=O)NC(=O)[C@H](CO)NC(=O)[C@H](Cc2c[nH]c3ccccc23)NC(=O)[C@H]([C@@H](C)O)NC1=O
B3: 3BP-4264 (peptide)
peptide: {DOTA}-VDCE[dP]DWLTW[Dap]C-NH2
modifications: lactam 2-11; linker 3-12 via mXylylene
SMILES: CC(C)C[C@@H]1NC(=O)[C@H](Cc2c[nH]c3ccccc23)NC(=O)[C@H](CC(=O)O)NC(=O)[C@H]2CCCN2C(=O)[C@H](CCC(=O)O)NC(=O)[C@@H]2CSCc3cccc(c3)CSC[C@@H](C(N)=O)NC(=O)[C@H](CNC(=O)C[C@H](NC(=O)[C@@H](NC(=O)CN3CCN(CC(=O)O)CCN(CC(=O)O)CCN(CC(=O)O)CC3)C(C)C)C(=O)N2)NC(=O)[C@H](Cc2c[nH]c3ccccc23)NC(=O)[C@H]([C@@H](C)O)NC1=O
B4: 3BP-3905 (peptide)
peptide: {DOTA-APAc}-VYCE[dP]DWLTWSC-NH2
modifications: linker 3-12 via mXylylene; reading uncertain; also: ['indium complexed by DOTA']
B5: 3BP-3565 (peptide)
peptide: Ac-VYCE[dP]DWLTWSC-NH2
modifications: linker 3-12 via mXylylene
SMILES: CC(=O)N[C@H](C(=O)N[C@@H](Cc1ccc(O)cc1)C(=O)N[C@H]1CSCc2cccc(c2)CSC[C@@H](C(N)=O)NC(=O)[C@H](CO)NC(=O)[C@H](Cc2c[nH]c3ccccc23)NC(=O)[C@H]([C@@H](C)O)NC(=O)[C@H](CC(C)C)NC(=O)[C@H](Cc2c[nH]c3ccccc23)NC(=O)[C@H](CC(=O)O)NC(=O)[C@H]2CCCN2C(=O)[C@H](CCC(=O)O)NC1=O)C(C)C
B6: 3BP-3282 (peptide)
peptide: Ac-VYCE[dP]DWLTWAC-NH2
modifications: linker 3-12 via mXylylene
SMILES: CC(=O)N[C@H](C(=O)N[C@@H](Cc1ccc(O)cc1)C(=O)N[C@H]1CSCc2cccc(c2)CSC[C@@H](C(N)=O)NC(=O)[C@H](C)NC(=O)[C@H](Cc2c[nH]c3ccccc23)NC(=O)[C@H]([C@@H](C)O)NC(=O)[C@H](CC(C)C)NC(=O)[C@H](Cc2c[nH]c3ccccc23)NC(=O)[C@H](CC(=O)O)NC(=O)[C@H]2CCCN2C(=O)[C@H](CCC(=O)O)NC1=O)C(C)C

Legend:
[1] = molecular target: T1, Fc-fusion protein of human carbonic anhydrase IX (human, UniProt Q16790 38-414); assay: SPR, captured hCAIX-Fc; pKD category A: >8.0
Description: (§1) Stock solutions of test compounds were prepared by dissolving each compound in DMSO. DMSO stock solution were diluted 1:1000 in Running Buffer without DMSO. […] SPR binding analyses were performed in Single Cycle Kinetic (SCK) mode at 25° C.
(§2) For each test compound, SPR raw data in the form of resonance units (RU) were plotted as sensorgrams using the Biacore™ T200 control software. The signal from the blank sensorgram was subtracted from that of the test compound sensorgram (blank corrected). The blank corrected sensorgram was corrected for baseline drift by subtracting the sensorgram of a SCK run without the test compound (running buffer only). […] Raw data and fit results were imported as text files in IDBS. The pKD value (negative decadic logarithm of dissociation constant) was calculated in the IDBS excel template.

[2] = molecular target: T1, Fc-fusion protein of human carbonic …; assay: SPR, captured hCAIX-Fc; t1/2 category A: >15.0 min
Description: as §1, §2

[3] = molecular target: human carbonic anhydrase 9 (CAIX) (human, UniProt Q16790 38-459); assay: FACS competition on HT-29 cells, competitor tracer 3BP-2776; category A = pIC50 >8.0

pKD [1]	t1/2 (half-life of the complex, SPR) [2]	pIC50 [3]	Binder
> 8 pkd	> 15 min		Ac-VYCE[Nlys](DOTA)DWLTWAC-NH2 (linker 3-12 via mXylylene) [3BP-3562]
	> 15 min		{DOTA-PPAc}-QCE[dP]D[Af3(Hsfu)]LTWSC-NH2 (linker 2-11 via mXylylene) [3BP-4788]
	> 15 min		{DOTA-PPAc}-QCE[dP]D[Aph(SaPr)]LTWSC-NH2 (linker 2-11 via mXylylene) [3BP-4500]
		> 8 pic50	B1
	> 15 min		B2
> 8 pkd	> 15 min		B3
> 8 pkd	> 15 min		B4
> 8 pkd	> 15 min		{DOTA-APAc}-VYCE[dP][NMeD]WLTWSC-NH2 (linker 3-12 via mXylylene; reading uncertain) [3BP-4107]
> 8 pkd	> 15 min		{DOTA-APAc″}-VYCE[dP]DW[tBuAla]TWSC-NH2 (linker 3-12 via mXylylene) [3BP-4142]
	> 15 min		{GaDOTA-PPAc}-QCE[dP]D[Phe(3-NHCO(CH2)3SO2NH2)]LTWSC-NH2 (linker 2-11 via mXylylene; also: gallium in DOTA, also called natGa-DPI-4452) [3BP-4529]
> 8 pkd	> 15 min		{DOTA-APAc″}-VECE[dP]DWLTW[Dap]C-NH2 (lactam 2-11; linker 3-12 via mXylylene) [3BP-4175]
> 8 pkd	> 15 min		B5
> 8 pkd	> 15 min		{DOTA-APAc″}-VYCE[dP]DWLTWAC-NH2 (linker 3-12 via mXylylene) [3BP-3432]
> 8 pkd	> 15 min		{DOTA-APAc}-VYCE[dP]DWLTWEC-NH2 (linker 3-12 via mXylylene; not fully specified (residue 11); reading uncertain) [3BP-4122]
> 8 pkd	> 15 min		Ac-VYCE[dP]DWLTWE([Apr-DOTA])C-NH2 (linker 3-12 via mXylylene; reading uncertain) [3BP-3478]
> 8 pkd	> 15 min		{DOTA-APAc}-VYCE[dP]DWLE(AGLU′)WSC-NH2 (linker 3-12 via mXylylene; reading uncertain) [3BP-4121]
> 8 pkd	> 15 min		{DOTA-APAc}-VYCE[dP]C(Bn)WLTWSC-NH2 (linker 3-12 via mXylylene; not fully specified; reading uncertain) [3BP-4128]
> 8 pkd	> 15 min		{DOTA-APAc″}-VYCE[dP]E(N4BzlCl)WLTWSC-NH2 (linker 3-12 via mXylylene; reading uncertain) [3BP-4334]
> 8 pkd	> 15 min		{DOTA-APAc}-VYCE[dP]NWLTWSC-NH2 (linker 3-12 via mXylylene; reading uncertain) [3BP-4103]
> 8 pkd	> 15 min		B6
> 8 pkd	> 15 min		{DOTA-APAc″}-VYCE[dP]D[Af3(HO-Succinyl)]LTWSC-NH2 (linker 3-12 via mXylylene) [3BP-4237]
	> 15 min		{DOTA-PPAc}-QCE[dP]D[Af3(4SaPy2Ac)]LTWSC-NH2 (linker 2-11 via mXylylene) [3BP-4790]
	> 15 min		{DOTA}-QCE[dP]D[Aph(SaPr)″]LTWSC-NH2 (linker 2-11 via mXylylene; also: Ga complexed in DOTA) [3BP-4602]
> 8 pkd	> 15 min		{DOTA-APAc}-VYCE[dP][Eem]WLTWSC-NH2 (linker 3-12 via mXylylene; not fully specified; reading uncertain) [3BP-4123]
> 8 pkd	> 15 min		{DOTA-APAc}-VYCE[dP][hSer]WLTWSC-NH2 (linker 3-12 via mXylylene; reading uncertain) [3BP-4102]
